The values that follow come from patent US20180162944A1 (WUXI BIOLOGICS SHANGHAI, published 2018).

Numbering of substitutions follows the chain as printed.

To fix the notation:
T1: PD-L2 expressed on transfected CHO cells (Homo sapiens (Human), UniProt Q9BQ51 20-273)
T1 sequence: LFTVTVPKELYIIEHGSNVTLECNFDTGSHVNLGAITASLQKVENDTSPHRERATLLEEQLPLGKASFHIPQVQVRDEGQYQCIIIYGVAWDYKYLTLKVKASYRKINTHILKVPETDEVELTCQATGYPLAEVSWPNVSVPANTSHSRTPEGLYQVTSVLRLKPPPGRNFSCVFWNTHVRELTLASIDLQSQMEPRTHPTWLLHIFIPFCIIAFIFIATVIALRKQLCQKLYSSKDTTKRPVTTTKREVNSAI

B1: 2.74.15.hAb8 (antibody, V domains shown)
VH: QVQLQESGPGLVKPSETLSLTCTVSGYSITSGYIWHWIRQPPGKGLEWIGYIHYSGTTDFNPSLESRVTISVDTSKNQFSLKLSSVTAADTAVYYCAREGRSYGGFAYWGQGTLVTVSS
VL: DIQMTQSPSSLSASVGDRVTITCKASQSVSNGVAWYQQKPGKVPKLLIYYASNRFTGVPSRFSGSGSGTDFTLTISSLQPEDVATYYCQQDYSSPFTFGQGTKLEIK
notes: Humanized antibody with a human constant region of IgG4 isotype
B2: 2.74.15.hAb4 (antibody, V domains shown)
VH: B1 VH with S119A
VL: B1 VL with D1S, I2F, Q3V, Q100S, K103E
notes: as for B1
B3: 2.74.15.hAb6 (antibody, V domains shown)
VH: B1 VH with S25T, P42A
VL: B1 VL
notes: as for B1
B4: 2.74.15.hAb5 (antibody, V domains shown)
VH: B1 VH with S25T, P42A
VL: B1 VL with M4L, S10F, V43A, D70E, V83F
notes: as for B1
B5: 2.74.15.hAb7 (antibody, V domains shown)
VH: B1 VH
VL: B1 VL with M4L, S10F, V43A, D70E, V83F
notes: as for B1

The target of the first experiment is T1, PD-L2 expressed on transfected CHO cells. Nature of the experiment: FACS, PD-L2 transfected CHO-K1 cells, single staining, concentration not shown. The method, then: 3.8. Cross-family binding assay by FACS: to examine the cross-family binding activity of the humanized antibodies, cells lines that express PD-L2 were stained with the humanized antibodies, followed by 2nd antibody staining with FITC conjugated goat anti-human IgG Fc. PD-L1 expressing cells were used as positive control. Corresponding parental cell lines were used as negative controls. The stained cells were analyzed by using a BD Biosciences FACSCanto II and FlowJo Version software.
CHO cells transfected with PD-L1 or PD-L2 were stained with humanized PD-L1 antibodies and analysis by FACS.
A general note: In flow cytometry, cells or beads pass a laser one at a time.
Take B1: the binding result is “no binding”.
The same measure, in the same setting: to B2 belongs “no binding”; to B3, “no binding”; to B4, “no binding”.
Same read-out and setting: in the case of B5 it was “no binding”.

In the next experiment the target is T2, murine PD-L1 (mouse, UniProt Q9EP73 19-239, limits assumed).
T2 construct: also called mouse PD-L1
T2 sequence (Q9EP73 19-239 limits assumed): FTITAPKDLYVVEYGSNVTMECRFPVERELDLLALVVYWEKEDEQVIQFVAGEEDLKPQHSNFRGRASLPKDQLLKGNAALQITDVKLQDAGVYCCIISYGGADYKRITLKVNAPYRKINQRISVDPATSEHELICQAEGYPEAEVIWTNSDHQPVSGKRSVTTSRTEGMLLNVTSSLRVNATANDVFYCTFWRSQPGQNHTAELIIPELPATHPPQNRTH
Nature of the experiment: ELISA or FACS. In general terms: In an ELISA, binding on a coated surface is turned into a signal by an enzyme label.
B1: the binding result was “no binding”.
On the same count and under the same terms, to B3 belongs “no binding”.
Same read-out and setting: to B4 belongs “no binding”; to B5, “no binding”.

Another experiment deals with T3, human PD-L1 expressed on cells (CHO / CHO-K1 cells transfected with full-length human PD-L1); native PD-L1 on … (human, UniProt Q9NZQ7 19-290).
T3 construct: whole, on cells; also called PD-L1 expressing CHO cell; PD-L1 transfected CHO cells
T3 sequence (Q9NZQ7 19-290): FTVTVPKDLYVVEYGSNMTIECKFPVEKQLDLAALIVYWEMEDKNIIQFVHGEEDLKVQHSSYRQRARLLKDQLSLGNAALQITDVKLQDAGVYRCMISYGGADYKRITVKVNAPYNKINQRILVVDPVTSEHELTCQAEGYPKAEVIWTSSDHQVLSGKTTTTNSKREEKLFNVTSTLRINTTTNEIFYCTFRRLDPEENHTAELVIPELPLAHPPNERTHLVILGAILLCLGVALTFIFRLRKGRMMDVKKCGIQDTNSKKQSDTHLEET
Nature of the experiment: FACS competition on human PD-L1 expressing CHO cells; blocked ligand: mouse Fc-tagged human PD-1; middle panel.
A word on the IC50: it is the concentration needed to halve the response being measured. For the molecule B3, the IC50 stood at 0.157 nM.
Same read-out and setting: in the case of B4 it was 0.15 nM.

The target in the next experiment is T4, recombinant human PD-L1 (human, UniProt Q9NZQ7 19-238).
T4 construct: the whole natural entry is named
T4 sequence (Q9NZQ7 19-238 limits assumed): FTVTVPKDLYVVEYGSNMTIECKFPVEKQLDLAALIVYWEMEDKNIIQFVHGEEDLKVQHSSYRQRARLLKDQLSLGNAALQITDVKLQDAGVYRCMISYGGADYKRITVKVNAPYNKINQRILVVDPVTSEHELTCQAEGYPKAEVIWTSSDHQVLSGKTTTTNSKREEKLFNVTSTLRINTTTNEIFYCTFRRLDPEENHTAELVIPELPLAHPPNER
The experiment can be described thus: SPR (ProteOn XPR36), antibody captured on Protein A, human PD-L1 as analyte, 1:1 Langmuir fit. Here is the method:
3.2. […] Protein A protein (Sigma) was immobilized to a GLM sensor chip (Bio-Rad) through amine coupling. Purified antibodies were flowed over the sensor chip and captured by the Protein A. The chip was rotated 90° and washed with running buffer (1×PBS/0.01% Tween20, Bio-Rad) until the baseline is stable. Five concentrations of human PD-L1 and running buffer were flowed against the antibody flow cell at a flow rate 100 μL/min for an association phase of 240s, followed by 600s dissociation. The chip was regenerated with pH 1.7 H₃PO₄ after each run. The association and dissociation curve was fit to a 1:1 Langmuir binding model using ProteOn software.
As usually defined, the Kd is the concentration at which binding is half-saturated. One may read the koff as a measure of how fast the partners let go of each other. In general, kon refers to the second-order rate constant of association. As for B1, the Kd was 0.0676 nM, the koff was 5.48e-05 s⁻¹ and the kon was determined as 811000 M⁻¹ s⁻¹.
In the case of B2, the Kd amounted to 0.0389 nM, the off-rate (koff) came out at 2.83e-05 s⁻¹ and the kon is 728000 M⁻¹ s⁻¹.
The corresponding values for B3 are 0.149 nM, 0.000172 s⁻¹ and 1.16e+06 M⁻¹ s⁻¹.
The corresponding values for B4 are 0.106 nM, 0.000135 s⁻¹ and 1.27e+06 M⁻¹ s⁻¹.
As to B5, the Kd was 0.155 nM, the koff turned out to be 0.000146 s⁻¹ and the kon stood at 938000 M⁻¹ s⁻¹.

The target in the next experiment is T5, cynomolgus monkey PD-L1 (cynomolgus monkey, UniProt G7PSE7 19-238).
T5 construct: also called cyno PD-L1
T5 sequence (G7PSE7 entry or part of it limits assumed): as the sequence (Q9NZQ7 19-238 limits assumed) above, with A33T, A34S, S62N, R68Q, Q82R, F173L, T185A, T192I, H215L counted along it
Nature of the experiment: ELISA, cynomolgus PD-L1 coated on the plate, OD450 against antibody concentration; upper panel. Here is the method:
(§1) 3.7. Cross-species binding assay: the cross-reactivity of the Ab to cynomolgus and murine PD-L1 was measured by ELISA. Human, cyno and mouse PD-L1 were coated on ELISA plates, respectively. After blocking, the humanized antibodies were added into the plate and incubated at room temperature for at least 2 hours. The binding of the antibodies to the coated antigens was detected by using goat anti-human IgG Fc-HRP. The color reaction was developed using TMB substrate and stopped by 2M HCl. The ELISA plates were analyzed at 450 nm using a Molecular Device M5e microplate reader.
Broadly, the EC50 is the concentration needed to bring the measured effect to its halfway point. On to B2, for which the EC50 was 0.00577 nM.
Molecule B3 came in with an EC50 of 0.0238 nM.
Consider B4, for which the EC50 was found to be 0.026 nM.

The next experiment concerns the target T5, cynomolgus monkey PD-L1. Nature of the experiment: ELISA, cynomolgus PD-L1 coated on the plate, OD450 against antibody concentration; lower panel. Here is the method:
as §1
As to B1, the midpoint of the response, the EC50, lay at 0.0524 nM.
B5 showed an EC50 of 0.000721 nM.

The target in a further experiment is T3, human PD-L1 expressed on cells (CHO / …). Nature of the experiment: FACS competition on human PD-L1 expressing CHO cells; blocked ligand: mouse Fc-tagged human PD-1; bottom panel.
Take B1: the IC50 stood at 0.196 nM.
On the same count and under the same terms, to B5 belongs 0.199 nM.

The target is the same in a further experiment. The experiment can be described thus: FACS, native PD-L1 on human monocyte-derived dendritic cells, MFI against antibody concentration.
Consider B1, for which the EC50 turned out to be 2.52 nM.
Take B2: the EC50 stood at 1.82 nM.
Same read-out and setting: in the case of B3 it was 2.39 nM; in that of B4, 2 nM; in that of B5, 2.53 nM.

The target in another experiment is T2, murine PD-L1. Nature of the experiment: ELISA, antigen coated on plate. The method, then:
as §1
As for B2, the binding result is given as “no binding”.

In a further experiment the target is T3, human PD-L1 expressed on cells (CHO / …). Nature of the experiment: FACS, CHO cells transfected with full-length human PD-L1, MFI against antibody concentration.
B1 showed an EC50 of 1.17 nM.
As to B2, it took 1.53 nM to reach a half-maximal effect (EC50).
On the same count and under the same terms, to B3 belongs 1.08 nM; to B4, 1.11 nM; to B5, 1.18 nM.

The next experiment has the same target. The experiment can be described thus: FACS competition on human PD-L1 expressing CHO cells; blocked ligand: mouse Fc-tagged human PD-1; top panel.
B2: the IC50 worked out at 0.622 nM.
